Data set [1] is described as follows: Body weight and food intake in C57BL/6 mice, unconjugated fusion proteins, 30 nmol/kg daily 10 days. The class given is in vivo. On the procedure:
10 week old male C57BL/6 mice were injected everyday subcutaneously with 15 nmol/kg of the fusion protein conjugates (i.e., MLC002, MLC 004, MLC 005, MLC 006, MLC 007, MLC 008, and MLC 009) for 14 days. Food intake and body weight were measured daily and five animals were used for each treatment group. Body weight (BW) was monitored for each individual animal, but food intake for each group animals was measured together. Day 1 and Day 14 are first day and last day of molecule dosage. % BW loss=100*(BW on Day n-BW on Day 1)/(BW on Day 1). Cumulative food intake on Day n represents sum of food intake from Day 1 to Day n. Data are indicated as mean values and standard error (SEM) or pooled values. Statistical analysis was performed by One-way ANOVA. Body weight reduction on Day 11 is calculated by −1*(% BW loss−% BW loss of vehicle group); Cumulative food intake reduction is calculated by −100*(cumulative food intake-cumulative food intake of vehicle)/cumulative food intake of vehicle.
As described in the above method, a daily dose of 30 nmol/kg of the unconjugated fusion proteins (i.e., MLC100, MLC023, MLC022, MLC020, MLC003, MLC124, MLC021, MLC019, MLC102) were administered to C57BL/6 for 10 days. Data were calculated as above method. Day 1 and Day 10 are first day and last day of administration.

Data set [2] in a line: Additive or synergistic effect: body weight and food intake in C57BL/6 mice, 30 nmol/kg daily sc 10 days. The class given is in vivo. The note with it: versus negative controls MLC096 and MLC097. The procedure: FIGS. 7A-7B show In vivo efficacy in C57 lean mice. To evaluate the body weight and food intake effects of the fusion proteins, 10 week old male C57BL/6J mice were dosed everyday subcutaneously with 30 nmol/kg protein for 10 days. Food intake and body weight were measured daily. […] Data are expressed as mean values and standard error (SEM) for FIG. 7A. n=5 for each treatment group. For FIG. 7B, a pooled food intake was measured for each treatment group.
10 week old male C57BL/6 mice were injected everyday subcutaneously with 30 nmol/kg of the unconjugated fusion proteins (i.e., MLC096, MLC097 and MLCO21) for 10 days. Food intake and body weight were measured daily and five animals were used for each treatment group. Body weight (BW) was monitored for each individual animal, but food intake for each group animals was measured together. Day 1 and Day 10 are first day and last day of molecule dosage. % BW loss=100*(BW on Day n-BW on Day 1)/(BW on Day 1). Cumulative food intake on Day n represents sum of food intake from Day 1 to Day n. Data are indicated as mean values and standard error (SEM) or pooled values. Statistical analysis was performed by One-way ANOVA.
As discussed above, MLC096 and MLC097 were used as negative controls, as they contained known inactivating mutation in GDF15 or GLP-1.

The conditions of data set [3]: cynomolgus monkey, in vivo, sc, 5 nmol/kg.
Description: (§1) Plasma samples were collected pre-dose (−5 min), 2 hr, 4 hr, 6 hr, 8 hr, 24 hr, 48 hr, 72 hr, 96 hr, 120 hr, 144 hr, 216 hr, 288 hr, 360 hr, 432 hr and 504 hr after the injection. The concentrations of the fusion protein conjugates in the plasma were measured by an ELISA assay which has immunoreactivity towards both GDF15 and intact N-terminal of GLP-1. Based on the graph showing plasma concentration of each protein versus time after subcutaneous injection, the pharmacokinetic parameters (including Tmax, Cmax, T1/2, AUC) were calculated by WinNonlin software.
A short description of data set [4]: Efficacy in db/db mice: body weight, food intake, glucose, biomarkers, daily sc 14 days. It is filed as in vivo.
Data set [5] in a line: Pharmacokinetic measurement in mouse, single sc dose 30 nmol/kg, plasma ELISA. The note with it: single sc dose 30 nmol/kg.
For data set [6] the following is noted: mouse, in vivo, sc, 30 nmol/kg.
Data set [7] is described as follows: PK study in non-human primates, single sc dose 5 nmol/kg, plasma ELISA. The settings on record: monkey, single sc dose 5 nmol/kg. Background: ELISA stands for enzyme-linked immunosorbent assay.
Description: as §1
A short description of data set [8]: Body weight and food intake in C57BL/6 mice, fusion protein conjugates, 30 nmol/kg daily 10 days. It is filed as in vivo. Put shortly: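 Male C57BL/6 mice received fusion protein conjugates by daily subcutaneous injection, with dosing running from Day 1 to Day 10. Body weight was recorded daily per animal and food intake daily per group. Body weight reduction was expressed relative to vehicle percent loss from Day 1. Cumulative food intake reduction was expressed as percent decrease versus vehicle.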

The mark [9] stands for this setting: C57 mice, 30 nmol/kg daily, Day11, unconjugated fusion proteins.
Where [10] appears, read: 30 nmol/kg, FIG. 5A-E, versus Semaglutide, Tirzepatide and MLC014.

B1: MLC021: unconjugated GLP-1/GDF15 fusion protein, linker of at least 80 residues (protein)
chain: HGEGTFTSDVSSYLEEQAAKEFIAWLVRGGGGQEPGAQPGQEPGAQPGQEPGAQPGQEPGAQPGQEPGAQPGQEPGAQPGAQPGAQPGAQPGAQPGAQPGAQPGAQPGAQPARQGDHCPLGPGRCCRLHTVRASLEDLGWADWVLSPREVQVTMCIGACPSQFRAANLHAQIKTSLHRLKPDTVPAPCCVPASYNPMVLIQKTDTGVSLQTYDDLLAKDCHCI
Take B1: in data set [1] (setting [9]), the “Body weight reduction at 30 nmol/kg (% reduction compared to vehicle)(Day11)” value was determined as 22.1% and the “Cumulative food intake reduction at 30 nmol/kg (% reduction compared to vehicle)(Day11)” value came to 48.7%. Besides, the “in vivo efficacy (food intake and body weight reduction)” value in data set [1] (unconjugated fusion proteins, 30 nmol/kg daily 10 days, by linker length) is on record as “the most significant results among all the tested fusion proteins”. Further, in data set [2], the “body weight reduction efficacy” value is “much better body weight reduction efficacy” and the food intake result is recorded as “decreased food intake”.

B2: MLC047: fusion polypeptide SEQ ID NO: 330 conjugated with Moiety A at 40K of linker (conjugate)
chain: HGEGTFTSDVSSYLEEQAAREFIAWLVRGGGGQEPGAQPGQEPGAQPGQEPGAQPGQEPGAQPGQEPGAQKGQEPGAQPGAQPGAQPGAQPGAQPGAQPGAQPGAQPGAQPARQGDHCPLGPGRCCRLHTVRASLEDLGWADWVLSPREVQVTMCIGACPSQFRAANLHAQIKTSLHRLRPDTVPAPCCVPASYNPMVLIQRTDTGVSLQTYDDLLARDCHCI
As to B2, the “AUC0-96 h” value in data set [3] was found to be 1.541 µM·h. Further, in data set [4] (setting [10]), the body weight loss result is “sustainable and much better effect”; the food intake suppression result is “sustainable and much better effect”. In addition, the efficacy entry in data set [4] (FIG. 5 study) is “better efficacy than Semaglutide and GDF15 derivative (MLC014)”. Also, the Tmax (in general, the time at which the peak concentration occurs) in data set [5] came to 10.7 h. In data set [6], the “AUC0-24 h” value was found to be 1.2468 µM·h; the Cmax – broadly, the peak of the concentration-time curve – was 71.9 nM; the “Terminal t1/2” value worked out at 9.3 h. In data set [7], the time of peak concentration (Tmax) came out at 16 h. In data set [8], the “Body weight reduction at 30 nmol/kg (% reduction compared to vehicle)(Day11)” value amounted to 24.7% and the “Cumulative food intake reduction at 30 nmol/kg (% reduction compared to vehicle)(Day11)” value worked out at 51.2%.
